2 molecules from patent publication US20230365672A1 (KINDRED BIOSCIENCES, published 2023) can be followed below.

Test [1] deals with T1, biotinylated equine IL31 (immobilized to the biolayer interferometry sensor) (equine, biotinylated, sites not stated).
T1 chain: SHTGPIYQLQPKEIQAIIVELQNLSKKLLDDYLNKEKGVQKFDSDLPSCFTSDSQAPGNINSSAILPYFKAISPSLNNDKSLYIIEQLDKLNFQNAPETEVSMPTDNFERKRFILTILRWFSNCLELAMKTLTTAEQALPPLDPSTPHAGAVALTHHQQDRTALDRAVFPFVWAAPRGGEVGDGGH
Kind of test: biolayer interferometry, biotinylated equine IL31 on the sensor, preliminary measurement. For orientation: Biolayer interferometry detects binding as a change in optical thickness at a sensor tip.

Test [2] deals with T2, canine IL31 with C-terminal polyHis tag (canine, biotinylated (EZ-Link NHS-LC-biotin), sites not stated).
T2 construct: also called biotinylated canine IL31
T2 chain: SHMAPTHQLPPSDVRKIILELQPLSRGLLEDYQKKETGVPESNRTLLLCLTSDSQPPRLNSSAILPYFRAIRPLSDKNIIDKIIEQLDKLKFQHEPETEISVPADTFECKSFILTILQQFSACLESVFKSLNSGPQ
Description: biolayer interferometry (Octet), biotinylated canine IL31 on streptavidin tips, 2:1 binding model. As for the experimental part: The binding analysis was performed using a biosensor Octet as follows. Briefly, canine IL31 was biotinylated. The free unreacted biotin was removed from biotinylated IL31 by extensive dialysis. Biotinylated canine IL31 was captured on streptavidin sensor tips. The association of four different concentrations (400, 200, 66.6, and 33 nM) of antibody and IL31 (human and canine, in different tests) was monitored for ninety seconds. Dissociation was monitored for 600 seconds. A buffer only blank curve was subtracted to correct for any drift. The data were fit to a 2:1 binding model using ForteBio™ data analysis software to determine the kₒₙ, koff, and the Kd. The buffer for dilutions and all binding steps was: 20 mM phosphate, 150 mM NaCl, pH 7.2.

Numbering of substitutions follows the chain as printed. A value given as a limit tells only on which side of the number the result lay.

B1: M14 antibody (as used in Example 7) (antibody, V domains shown)
VH: EVQLQESGPSLVKPSQTLSLTCSVTGDSITSGYWNWIRKFPGNKLEYMGYISYSGITDYNPSLKSRISITRDTSKNQYYLQLNSVTTEDTATYYCARYGNYGYAMDYWGQGTSVTVSS
VL: DIVLTQSPASLAVSLGQRATISCRASESVDTYGNSFMHWYQQKSGQSPKLLIYRASNLESGIPARFGGSGSRTDFTLTIDPVEADDVATYYCQQSYEDPWTFGGGTKLEIK
notes: also called monoclonal antibody M14
A word on the Kd: it is a measure of binding affinity in units of concentration. Low values mean a tighter complex, high ones a looser complex. In turn, B1 had an equilibrium dissociation constant (Kd) in test [1] of 10 to 50 nM.

B2: caninized M14 IgG-B (antibody, V domains shown)
VH: B1 VH with Q5V, S15G, Q16G, T17S, S19R, S68T, T70S, S113L
VL: DIVMTQSPASLSVSLGQRATISCRASESVDTYGNSFMHWYQQKPGQSPKLLIYRASNLESGIPARFGGSGSGTDFTLTIDPVQADDVATYYCQQSYEDPWTFGGGTKLEIKR
notes: canine IgG-B; also called caninized M14 antibody; caninized IL31-mAb M14
On to B2, for which the equilibrium dissociation constant (Kd) in test [2] was below 0.01 nM.
